Peptide exchange yield data for 60 molecules are collected here from US20170296640A1 (IMMATICS BIOTECHNOLOGIES, published 2017).

First the molecules themselves.
B1: VIIPLLSSV (SEQ ID NO: 17) (peptide)
peptide: VIIPLLSSV
B2: GLSEYQRNFL (SEQ ID NO: 147) (peptide)
peptide: GLSEYQRNFL
B3: FLDVSRDFV (SEQ ID NO: 186) (peptide)
peptide: FLDVSRDFV
B4: GLLQQPPAL (SEQ ID NO: 146) (peptide)
peptide: GLLQQPPAL
B5: TLIAAILYL (SEQ ID NO: 16) (peptide)
peptide: TLIAAILYL
B6: SLFDGAVISTV (SEQ ID NO: 164) (peptide)
peptide: SLFDGAVISTV
B7: ICAGHVPGV (SEQ ID NO: 148) (peptide)
peptide: ICAGHVPGV
B8: GLLSAVSSV (SEQ ID NO: 198) (peptide)
peptide: GLLSAVSSV
B9: IIIEDLLEA (SEQ ID NO: 15) (peptide)
peptide: IIIEDLLEA
B10: YLLTDNVVKL (SEQ ID NO: 197) (peptide)
peptide: YLLTDNVVKL
B11: ILNPVTTKL (SEQ ID NO: 149) (peptide)
peptide: ILNPVTTKL
B12: SLAPFDREPFTL (SEQ ID NO: 194) (peptide)
peptide: SLAPFDREPFTL
B13: SLFSITKSV (SEQ ID NO: 167) (peptide)
peptide: SLFSITKSV
B14: KVQDVLHQV (SEQ ID NO: 158) (peptide)
peptide: KVQDVLHQV
B15: FIAQLNNVEL (SEQ ID NO: 185) (peptide)
peptide: FIAQLNNVEL
B16: GILQLVESV (SEQ ID NO: 180) (peptide)
peptide: GILQLVESV
B17: YLYEAEEATTL (SEQ ID NO: 177) (peptide)
peptide: YLYEAEEATTL
B18: SLLSPLLSV (SEQ ID NO: 168) (peptide)
peptide: SLLSPLLSV
B19: VLFETVLTI (SEQ ID NO: 183) (peptide)
peptide: VLFETVLTI
B20: RLADLKVSI (SEQ ID NO: 162) (peptide)
peptide: RLADLKVSI
B21: GLEDEMYEV (SEQ ID NO: 188) (peptide)
peptide: GLEDEMYEV
B22: AVLGTSWQL (SEQ ID NO: 184) (peptide)
peptide: AVLGTSWQL
B23: GLLHEVVSL (SEQ ID NO: 145) (peptide)
peptide: GLLHEVVSL
B24: NLMLELETV (SEQ ID NO: 161) (peptide)
peptide: NLMLELETV
B25: VILDSVASV (SEQ ID NO: 173) (peptide)
peptide: VILDSVASV
B26: YLLDFEDRL (SEQ ID NO: 200) (peptide)
peptide: YLLDFEDRL
B27: TLQDSLEFI (SEQ ID NO: 172) (peptide)
peptide: TLQDSLEFI
B28: KIMYTLVSV (SEQ ID NO: 152) (peptide)
peptide: KIMYTLVSV
B29: KLTDQPPLV (SEQ ID NO: 18) (peptide)
peptide: KLTDQPPLV
B30: ILVKQSPML (SEQ ID NO: 151) (peptide)
peptide: ILVKQSPML
B31: YLHIYESQL (SEQ ID NO: 176) (peptide)
peptide: YLHIYESQL
B32: ALAAGGYDV (SEQ ID NO: 202) (peptide)
peptide: ALAAGGYDV
B33: KLLEEIEFL (SEQ ID NO: 165) (peptide)
peptide: KLLEEIEFL
B34: TLLDVISAL (SEQ ID NO: 171) (peptide)
peptide: TLLDVISAL
B35: GMAAEVPKV (SEQ ID NO: 192) (peptide)
peptide: GMAAEVPKV
B36: GLSDISAQV (SEQ ID NO: 191) (peptide)
peptide: GLSDISAQV
B37: VLEAILPLV (SEQ ID NO: 19) (peptide)
peptide: VLEAILPLV
B38: SIFDAVLKGV (SEQ ID NO: 163) (peptide)
peptide: SIFDAVLKGV
B39: YLNISQVNV (SEQ ID NO: 201) (peptide)
peptide: YLNISQVNV
B40: SLADSMPSL (SEQ ID NO: 193) (peptide)
peptide: SLADSMPSL
B41: KLMTSLVKV (SEQ ID NO: 155) (peptide)
peptide: KLMTSLVKV
B42: KMLEDDLKL (SEQ ID NO: 156) (peptide)
peptide: KMLEDDLKL
B43: FLNSFVFKM (SEQ ID NO: 187) (peptide)
peptide: FLNSFVFKM
B44: SLNSTTWKV (SEQ ID NO: 199) (peptide)
peptide: SLNSTTWKV
B45: YVLQGEFFL (SEQ ID NO: 178) (peptide)
peptide: YVLQGEFFL
B46: LLPPPPPVA (SEQ ID NO: 182) (peptide)
peptide: LLPPPPPVA
B47: LLFDQNDKV (SEQ ID NO: 181) (peptide)
peptide: LLFDQNDKV
B48: VMESILLRL (SEQ ID NO: 175) (peptide)
peptide: VMESILLRL
B49: KLMNIQQQL (SEQ ID NO: 154) (peptide)
peptide: KLMNIQQQL
B50: SLSHLVPAL (SEQ ID NO: 189) (peptide)
peptide: SLSHLVPAL
B51: LLLSDSGFYL (SEQ ID NO: 159) (peptide)
peptide: LLLSDSGFYL
B52: SSLEENLLHQV (SEQ ID NO: 169) (peptide)
peptide: SSLEENLLHQV
B53: VLVEITDVDFAA (SEQ ID NO: 174) (peptide)
peptide: VLVEITDVDFAA
B54: ALIPDLNQI (SEQ ID NO: 195) (peptide)
peptide: ALIPDLNQI
B55: KVLEFLAKV (SEQ ID NO: 157) (peptide)
peptide: KVLEFLAKV
B56: ILSEKEYKL (SEQ ID NO: 150) (peptide)
peptide: ILSEKEYKL
B57: KLLKGIYAI (SEQ ID NO: 153) (peptide)
peptide: KLLKGIYAI
B58: FVDTNLYFL (SEQ ID NO: 179) (peptide)
peptide: FVDTNLYFL
B59: LLPPPSPAA (SEQ ID NO: 160) (peptide)
peptide: LLPPPSPAA
B60: GLIELVDQL (SEQ ID NO: 190) (peptide)
peptide: GLIELVDQL

The target of this experiment is T1, HLA-A*02:01 (peptide-receptive MHC class I monomer after UV cleavage of the UV-sensitive ligand) (human).
T1 construct: MHC monomers loaded by UV-ligand exchange and captured on streptavidin plates
The experiment can be described thus: UV ligand-exchange ELISA; exchange yield grade (+ >=10%, ++ >=20%, +++ >=50%, ++++ >=75%). The source says: Candidate peptides for T cell based therapies according to the present invention were further tested for their MHC binding capacity (affinity). The individual peptide-MHC complexes were produced by UV-ligand exchange, where a UV-sensitive peptide is cleaved upon UV-irradiation, and exchanged with the peptide of interest as analyzed. Only peptide candidates that can effectively bind and stabilize the peptide-receptive MHC molecules prevent dissociation of the MHC complexes. To determine the yield of the exchange reaction, an ELISA was performed based on the detection of the light chain (β2m) of stabilized MHC complexes. The assay was performed as generally described in Rodenko et al. (Rodenko et al., 2006).
96 well MAXISorp plates (NUNC) were coated over night with 2 ug/ml streptavidin in PBS at room temperature, washed 4× and blocked for 1 h at 37° C. in 2% BSA containing blocking buffer. Refolded HLA-A*02:01/MLA-001 monomers served as standards, covering the range of 15-500 ng/ml. Peptide-MHC monomers of the UV-exchange reaction were diluted 100 fold in blocking buffer. Samples were incubated for 1 h at 37° C., washed four times, incubated with 2 ug/ml HRP conjugated anti-β2m for 1 h at 37° C., washed again and detected with TMB solution that is stopped with […]. Absorption was measured at 450 nm. Candidate peptides that show a high exchange yield (preferably higher than 50%, most preferred higher than 75%) are generally preferred for a generation and production of antibodies or fragments thereof, and/or T cell receptors or fragments thereof, as they show sufficient avidity to the MHC molecules and prevent dissociation of the MHC complexes.
A general note: An ELISA detects its analyte on a solid surface through an enzyme-linked reagent.
B1 showed a peptide exchange yield of 50 to 75%. With B2 the figure was 50 to 75%; with B3, 20 to 50%.

As to B4, the peptide exchange yield fell in the range of 50 to 75%. With B5 the figure was 20 to 50%; with B6, 50 to 75%. With B7 the figure was 50 to 75%; with B8, 50 to 75%. With B9 the figure was ≥ 75%. Molecule B10 came in with a peptide exchange yield of 20 to 50%.

B11 came in with a peptide exchange yield of 50 to 75%. With B12 the figure was 20 to 50%; with B13, 50 to 75%. With B14 the figure was 50 to 75%. With B15 the figure was 50 to 75%; with B16, 50 to 75%. In turn, B17 showed a peptide exchange yield of 50 to 75%. With B18 the figure was 50 to 75%; with B19, 50 to 75%; with B20, ≥ 75%. With B21 the figure was 20 to 50%; with B22, 50 to 75%. With B23 the figure was 50 to 75%; with B24, 50 to 75%.

B25: the peptide exchange yield was ≥ 75%. With B26 the figure was ≥ 75%.

As to B27, the peptide exchange yield was ≥ 75%. With B28 the figure was 20 to 50%; with B29, 50 to 75%. As for B30, the peptide exchange yield lay within 50 to 75%. With B31 the figure was 50 to 75%. With B32 the figure was 20 to 50%; with B33, 50 to 75%; with B34, ≥ 75%. B35 had a peptide exchange yield of 20 to 50%.

As for B36, the peptide exchange yield lay within 50 to 75%. With B37 the figure was ≥ 75%. With B38 the figure was ≥ 75%; with B39, 50 to 75%. B40: the peptide exchange yield lay in the range of 20 to 50%. With B41 the figure was 50 to 75%; with B42, 50 to 75%. With B43 the figure was 20 to 50%; with B44, 50 to 75%. Molecule B45 yielded a peptide exchange yield of 50 to 75%. For B46, the peptide exchange yield is ≥ 75%. With B47 the figure was 50 to 75%; with B48, 50 to 75%.

As to B49, the peptide exchange yield is 50 to 75%. The molecule B50 yielded a peptide exchange yield of 50 to 75%. B51: the peptide exchange yield is 50 to 75%.

The molecule B52 returned a peptide exchange yield of 50 to 75%. In the case of B53, the peptide exchange yield was ≥ 75%.

Consider B54, for which the peptide exchange yield lay in the range of 50 to 75%.

Consider B55, for which the peptide exchange yield is 50 to 75%. With B56 the figure was 50 to 75%; with B57, 50 to 75%; with B58, 50 to 75%. In turn, B59 had a peptide exchange yield of 50 to 75%. B60 came in with a peptide exchange yield of 50 to 75%.
